{"source": "patent US8147817B2", "about": "“IL-33 in the treatment and diagnosis of diseases and disorders” (The Brigham and Women's Hospital, Inc., priority 2006, dated 2012)", "molecules": {"B1": {"name": "IL-33: recombinant mature rat IL-33, starting with amino acid 109 of the full-length protein, N-terminal His tag (GenBank BC081993) (protein)", "chain": "SIQGTSLLTESCALSTYNDQSVSFVLENGCYVINVEDCGKNQEKDKVLLRYYESSFPAQSGDGVDGKKLMVNMSPIKDTDIWLNANDKDYSVELQKGDVSPPDQAFFVLHKKSSDFVSFECKNLPGTYIGVKDNQLALVEENDESCNNIMFKLSKM", "modifications": "left off: small tags and cut ends"}}, "key": {"mouse ST2": {"biological_target": "T1, mouse ST2 (Mus musculus, UniProt P14719)", "T1 construct": "purchased R&D", "T1 sequence (P14719 27-337 isoform P14719-2 limits assumed)": "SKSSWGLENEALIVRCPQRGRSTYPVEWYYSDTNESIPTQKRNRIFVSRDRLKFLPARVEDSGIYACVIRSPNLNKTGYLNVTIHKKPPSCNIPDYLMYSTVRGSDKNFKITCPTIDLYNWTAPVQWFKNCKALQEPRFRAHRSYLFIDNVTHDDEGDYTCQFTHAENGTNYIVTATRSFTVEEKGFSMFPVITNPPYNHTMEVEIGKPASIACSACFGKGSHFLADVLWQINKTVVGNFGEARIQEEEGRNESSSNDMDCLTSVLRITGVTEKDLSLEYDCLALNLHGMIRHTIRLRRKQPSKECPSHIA", "assay": "Pull-down assay of recombinant IL-33 with mouse ST2-Fc protein", "type": "binding", "from_the_text": "The GenBank™ accession number for rat IL-33 is BC081993. The rat IL-33 cDNA was subcloned into the expression vector pTrcHis-TOPO (Invitrogen), starting with amino acid 109 of the full-length protein with an N-terminal His tag. After sequencing, One-shot TOP10 bacteria (Invitrogen) were transformed and expression was induced with Isopropyl β-D-1-thiogalactopyranoside (Sigma). Four hours after induction, bacteria were harvested, and the pellet was resuspended in B-PER Bacterial Protein Extraction Reagent (Pierce) with EDTA-free protease inhibitor cocktail (Sigma). The lysate was purified with Ni-chelating affinity chromatography using a Ni-NTA Purification system (Invitrogen). Briefly, Ni NTA beads were washed twice after batch binding with 40 ml of 20 mM Imidazole, 300 mM NaCl, 50 mM potassium phosphate, pH 8.0. IL-33 was eluted with 10 ml of 250 mM Imidazole, 300 mM NaCl, 50 mM potassium phosphate, pH 8.0. IL-33 protein was further concentrated, dialyzed and purified by high-performance liquid chromatography (BioLogic DuoFlow System, Bio-Rad, Hercules, Calif.) using HiPrep sephacryl size exclusion column (GE Healthcare Bioscience, Piscataway, N.J.) with buffer containing 150 mM NaCl, 50 mM potassium phosphate, pH 7.2. Endotoxin level (<0.03 EU/μg protein) was determined by Limulus Amebocyte Lysate PYROGENT Ultra (Cambrex) as previously described (12). […]"}, "[1]": {"tested_on": "WT and ST2−/− mice after TAC", "conditions": "for induction of ANP and BNP gene expression after TAC: left ventricle 1 week after operation", "protocol": "Targeted ST2 ablated mice and their wild-type littermates were employed for the experiment simultaneously. TAC was produced as described previously (11-13) on 8-10 week old mice. Some mice underwent daily intraperitoneal (i.p.) injection of IL-33 (2 μg suspended in 100 microliters of PBS with 0.2% bovine serum albumin) or vehicle beginning from the day after TAC operation to the day of harvest.\nFormalin-fixed, paraffin-embedded sections were prepared as previously described (42). For immunohistochemistry, the first antibodies used were anti-cleaved caspase-3 (Cell Signaling Technology) and anti-mac3 (BD Biosciences, San Jose, Calif.). For TUNEL analysis, the In Situ apoptosis detection kit (Chemicon, Temecula, Calif.) was used along with the manufacturer's protocol with some optimal modifications on the treatment periods.\nTargeted ST2−/− mice and their WT littermates were employed for the experiments. TAC was produced as described previously (49, 50) on 8-10 week old mice. All operative procedures were performed by a single operator with over 20 years rodent cardiac surgery experience who was blinded to genotype and the randomized treatment assignment. Following the procedure, each mouse received daily i.p. injection of recombinant rat IL-33 (2 μg) or vehicle from the day after TAC operation until the day of harvest.\nEchocardiographic acquisition and analysis were performed by an echocardiographer blinded to treatment group. […] All images were taken at a heart rate greater than 400 beats per minute to minimize effects of anesthesia, using a Sonos-4500 (Philips) and a 15-MHz transducer. Three consecutive cardiac cycles were averaged. Left ventricular mass was calculated by the M-mode method (51). Left ventricular fractional shortening was calculated as (EDD−ESD)/EDD×100%, where EDD is end-diastolic dimension and ESD is end-systolic dimension.\nA planimetry image analysis program was used by an investigator blinded to treatment group to quantitate the 30 high power field regions randomly selected in each slice with Hematoxylin-eosin stain (for cross-sectional area) or Sirius-red stain (for fibrotic area). Cross sectional area of cardiomyocytes was measured as described previously (52). Fibrotic area was calculated as (red area/total area)×100%. The scores from all slices were averaged to calculate their respective values."}, "[2]": {"tested_on": "WT and ST2KO mice after MI", "assay": "Experimental myocardial infarction with IL-33 treatment", "type": "in vivo, mouse", "conditions": "recombinant rat IL-33 intraperitoneal daily up to 4 weeks", "from_the_text": "86 mice with wild-type (WT) or ST2 knockout (ST2KO) genotypes were randomized into 4 subgroups, Sham or MI operated, and with or without IL-33 treatment. Experimental myocardial infraction operation was done by permanent occlusion of the left anterior coronary artery via open-chest approach under deep anesthesia. IL-33 treatment was done by a single 2 microgram/kg on each day, intraperitoneal, of recombinant rat IL-33 protein, from the day of operation up to 4 weeks.\nMI was produced on 8-10 week old mice."}, "cardiomyocytes": {"tested_on": "cardiomyocytes", "assay": "Oxidative stress assay (DCFDA, ROS generation)", "type": "cell-based, rat", "conditions": "co-treatment with IL-33", "procedure": "An assay to detect oxidative stress was performed as reported previously (48). Cardiomyocytes were incubated with 2,7-dichlorodihydrofluorecein diacetate (DCFDA) for 45 min, washed in phosphate-buffered saline, and fluorescence intensity was measured using a fluorometer (PerkinElmer Life Science) at 595 nm."}, "MAP kinases and Akt": {"tested_on": "MAP kinases and Akt", "assay": "Western analysis for MAP kinases and Akt in cardiomyocytes", "type": "cell-based, rat", "procedure": "Phosphorylation of MAP kinases and Akt were detected by Western analysis as previously described (5). Membranes were incubated with primary antibodies overnight (phospho ERK1/2 diluted 1:1000; phospho SAPK/JNK diluted 1:500; phospho p38 MAPK diluted 1:500; phospho Akt (Ser473) diluted 1:1000). All antibodies were from Cell Signaling Technology, Inc. (Danvers, Mass.) and were sequentially detected with horseradish peroxidase-conjugated goat anti-rabbit IgG and enhanced chemiluminescence.\n(§1) Western analyses were performed as described previously (45). Membranes were incubated with primary antibodies overnight (anti-p44/42MAPK diluted 1:500; phospho-p44/42MAPK (Thr202/Tyr204) 1:1000; phospho-JNK (Thr183/Tyr185) 1:500; p38MAPK 1:500; phospho-p38MAPK (Thr180/Tyr182) 1:500; phospho-Akt (Ser473) 1:1000 and phospho-IκBα 1:1000, all from Cell Signaling, anti-mouse ST2L, from R&D 1:1000 and anti-IL-33 as described above, 1:500) at 4° C., detected with horseradish peroxidase-conjugated antibodies and enhanced chemiluminescence."}, "IκBα [3]": {"tested_on": "IκBα", "assay": "IκBα phosphorylation by Western analysis in cardiomyocytes", "type": "cell-based, rat", "procedure": "as §1"}, "IκBα [4]": {"tested_on": "IκBα", "assay": "IκBα phosphorylation by Western analysis in cardiac fibroblasts", "type": "cell-based, rat", "procedure": "as §1"}, "[5]": {"conditions": "ST2−/− mice, 4 weeks after operation"}, "[6]": {"conditions": "WT mice surviving 8 weeks after TAC"}, "[7]": {"conditions": "WT mice, IL-33 2 μg/day i.p. for 4 weeks"}}, "note": "Entries after “also recorded” stand apart in the source; their conditions may differ. Where two headings read alike, the source gives them in different places.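 Wherever Gross Heart/Body Weight after TAC is given: ST2−/− mice and WT littermates, 8-10 weeks old at the time of TAC surgery where applicable.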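 Wherever NF-κB nuclear binding activity in left ventricular myocardium is given: ST2−/− mice and WT littermates, 8-10 weeks old at the time of TAC surgery where applicable.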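 Wherever hypertrophy by echocardiography after TAC is given: ST2−/− mice and WT littermates, 8-10 weeks old at the time of TAC surgery where applicable.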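 Wherever percentage of TUNEL positive nuclei in myocardium is given: ST2−/− mice and WT littermates, 8-10 weeks old at the time of TAC surgery where applicable.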"}
{"molecule": "B1", "values": [{"measurement": "binding to mouse ST2 (pulldown with ST2-Fc chimera protein)", "setting": "mouse ST2", "result": "bound to the mouse ST2 protein"}, {"measurement": "binding to mouse ST2 (pulldown with ST2-Fc chimera protein)", "setting": "mouse ST2; listed as recombinant IL-33", "result": "exhibits specific binding to mouse ST2"}, {"measurement": "percentage of TUNEL positive nuclei in myocardium", "setting": "[1]; 4 weeks after operation", "result": "not changed; also recorded: did not affect TUNEL positivity"}, {"measurement": "Gross Heart/Body Weight after TAC", "setting": "[1]; ST2−/− mice", "result": "not in ST2−/− mice"}, {"measurement": "NF-κB nuclear binding activity in left ventricular myocardium", "setting": "[1]; ST2−/− mice, 1 week after operation", "result": "not in ST2−/− mice; also recorded: modest increase in NF-κB binding"}, {"measurement": "hypertrophy by echocardiography after TAC", "setting": "[1]; [5]", "result": "not in ST2−/− littermates"}, {"measurement": "increased left ventricular dilation and reduced fractional shortening after TAC", "setting": "[1]; [5]", "result": "not reversed"}, {"measurement": "induction of ANP and BNP gene expression after TAC", "setting": "[1]; ST2−/− mice", "result": "not in ST2−/− mice"}, {"measurement": "Gross Heart/Body Weight after TAC", "setting": "[1]; WT mice", "result": "antihypertrophic effect of IL-33 in WT mice"}, {"measurement": "survival after TAC", "setting": "[1]; WT mice", "result": "significantly improved survival in WT mice after TAC; also recorded: improved pathological changes and survival in WT mice"}, {"measurement": "fractional shortening (echocardiography)", "setting": "[1]; [6]", "result": "increased fractional shortening"}, {"measurement": "left ventricular wall thickness (echocardiography)", "setting": "[1]; [6]", "result": "reduced wall thickness"}, {"measurement": "NF-κB nuclear binding activity in left ventricular myocardium after TAC", "setting": "[1]; WT mice, 1 week after operation", "result": "inhibited NF-κB induction only in WT mice; also recorded: reversed these changes only in WT mice"}, {"measurement": "macrophage infiltration in myocardium after TAC", "setting": "[1]; WT mice, 1 week, co-treatment with IL-33", "result": "decreased by co-treatment with IL-33; also recorded: reduced macrophage infiltration after TAC only in WT mice"}, {"measurement": "hypertrophy by echocardiography after TAC", "setting": "[1]; WT mice, 4 weeks after operation", "result": "reduced hypertrophy only in WT mice"}, {"measurement": "cardiac fibrosis (Sirius-red) after TAC", "setting": "[1]; [7]", "result": "reduced cardiac fibrosis; also recorded: significantly improved these changes in WT mice"}, {"measurement": "cardiomyocyte hypertrophy (cross-sectional area) after TAC", "setting": "[1]; [7]", "result": "reduced cardiac fibrosis and cardiomyocyte hypertrophy; also recorded: significantly improved these changes in WT mice"}, {"measurement": "induction of ANP and BNP gene expression after TAC", "setting": "[1]; WT mice", "result": "markedly attenuated induction of both genes in WT; also recorded: effectively reversed the induction of these hypertrophic genes in WT mice with TAC; also recorded: reversed these changes only in WT mice"}, {"measurement": "macrophage infiltration in myocardium, IL-33 alone", "setting": "[1]; WT or ST2−/− mice without TAC, 1 week of treatment", "result": "did not significantly increase macrophage infiltration; also recorded: not observed; also recorded: did not induce macrophage infiltration"}, {"measurement": "echocardiographic parameters under non-stress conditions", "setting": "[1]; no TAC", "result": "no significant change"}, {"measurement": "survival after infarction", "setting": "[2]; ST2KO mice", "result": "eliminates this benefit"}, {"measurement": "survival after infarction", "setting": "[2]; WT mice", "result": "improves survival after infarction"}, {"measurement": "ROS generation in the presence of angiotensin-II or phenylephrine", "setting": "cardiomyocytes", "result": "significantly decreased the generation of ROS; also recorded: inhibited by IL-33 in cardiomyocytes"}, {"measurement": "phosphorylation of ERK, p38 and JNK MAP kinases", "setting": "MAP kinases and Akt; IL-33 (10 ng/ml) alone", "result": "increased phosphorylation of ERK, p38 and JNK MAP kinases; also recorded: generally modest compared with IL-1β; also recorded: activated all MAP kinases"}, {"measurement": "Akt activation", "setting": "MAP kinases and Akt; IL-33 alone", "result": "minimally activated Akt"}, {"measurement": "angiotensin-II-induced Akt activation", "setting": "MAP kinases and Akt; co-treatment with IL-33", "result": "did not impair angiotensin-II-induced Akt activation"}, {"measurement": "angiotensin-II-induced ERK phosphorylation", "setting": "MAP kinases and Akt; co-treatment with IL-33", "result": "did not affect ERK phosphorylation"}, {"measurement": "angiotensin-II-induced JNK phosphorylation", "setting": "MAP kinases and Akt; co-treatment with IL-33", "result": "decreased"}, {"measurement": "angiotensin-II-induced p38MAPK phosphorylation", "setting": "MAP kinases and Akt; co-treatment with IL-33", "result": "decreased"}, {"measurement": "reduction of IκBα phosphorylation induced by PDGF-BB or TNF-α", "setting": "IκBα [3]; PDGF-BB (10 ng/ml) or TNF-α (10 ng/ml), IL-33 10 ng/ml", "result": "not observed; also recorded: did not block IκBα phosphorylation"}, {"measurement": "IκBα phosphorylation by agent alone", "setting": "IκBα [3]; cardiomyocytes", "result": "induced IκBα phosphorylation in both cell types"}, {"measurement": "IκB phosphorylation under hypertrophic stimulus", "setting": "IκBα [3]; cardiomyocytes, co-treatment with IL-33", "result": "reduced IκB phosphorylation in cardiomyocytes"}, {"measurement": "IκBα phosphorylation by agent alone", "setting": "IκBα [4]", "result": "induced IκBα phosphorylation in both cell types"}]}
